Data reported in the supplement of paper PMC10201428.
± gives the standard deviation of the averaged measurements.

B1: library; a variant is named by its letters at N, in order (parent)
chain: ACATTTGTTGATACAACCATAAAATGATAATTACACCCATAAATTGATAATTATCACACCCANNNNNNNNNNNNNNCTCTGATCATAGTCAGACCAACATTGCTACGACCCGTATTCGCACCGACAC
B2: library; a variant is named by its letters at N, in order (parent)
chain: AATGTTGTTGATGCAACCATAAAGTGATATTTAATAATTATTTATAATCAGCAACTTAACCACAAAACAACCATATATTGATATNTCACAAAACAACCATAANTTGATATTTTTGTGAATCGAGTATTTCAGCAAAACTACTGCAGTAAGAA

Columns and labels:
Conditions in all cases: with VchCAST RNA-guided transposition machinery (E. coli BL21(DE3) host, lacZ target)
[1] = variants of: B1; assay: relative integration efficiency (T-RL orientation) vs wild-type transposon end (log2 (normalized fold change)); transposon end mutated: right end (5 bp flank + 75 bp right end); higher = more efficient transposition
Method: (§1)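 Pooled, barcoded VchCAST (Tn6677) mini-transposon donor libraries; each variable transposon-end sequence sits in a fixed pDonor mini-transposon context (10-bp barcode and cargo not included). Left- or right-end libraries were co-transformed with pEffector (TniQ-Cascade, TnsABC, lacZ crRNA, T7, 0.1 mM IPTG) into E. coli BL21(DE3) and grown 18 h at 37 C. T-LR and T-RL junction amplicons were sequenced; output/input barcode fold change was normalised to the mean of four wild-type barcodes and log2-transformed. Two biological replicates; zero-count/undetected variants carry floor values (-10 / -15), censored here. Barcode uncoupling by PCR recombination adds noise.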

[2] = variants of: B1; assay: relative integration efficiency (T-LR orientation) vs wild-type transposon end (log2 (normalized fold change)); transposon end mutated: right end (5 bp flank + 75 bp right end); higher = more efficient transposition
Method: as §1

[3] = variants of: B2; assay: relative integration efficiency (T-RL orientation) vs wild-type transposon end (log2 (normalized fold change)); transposon end mutated: left end; higher = more efficient transposition
Method in brief: (§2)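 Barcode abundances in input plasmids and in genomic integration junctions were obtained by PCR amplification and Illumina sequencing. These came from E. coli BL21(DE3) co-transformed with a T7-driven effector plasmid and a pUC57 donor carrying 1549 left-end or 1849 right-end transposon variants, then plated with 0.1 mM IPTG at 37°C for 18 h. Relative integration efficiency is the output/input fold change, normalised to reference barcodes and log-transformed.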

[4] = variants of: B2; assay: relative integration efficiency (T-LR orientation) vs wild-type transposon end (log2 (normalized fold change)); transposon end mutated: left end; higher = more efficient transposition
Method in brief: as §2

Variant | relative integration efficiency (log2) [1] | relative integration efficiency (log2) [2] | relative integration efficiency (log2) [3] | relative integration efficiency (log2) [4]
TAAATTGATATTGC C37T | -0.229 ± 0.057 | -0.304 ± 0.57 | – | –
TAAATTGATATTGC C37G | -0.123 ± 0.11 | -0.169 ± 0.072 | – | –
TAAATTGATATTGC C37A | -0.531 ± 0.059 | -1.21 ± 0.23 | – | –
TAAATTGATATTGA C77A | 0.00362 ± 0.0095 | 0.066 ± 0.4 | – | –
TAAATTGATATTGC A35T | -0.27 ± 0.02 | -0.45 ± 0.076 | – | –
TAAATTGATATTGC A35C | -0.0746 ± 0.015 | -0.0637 ± 0.3 | – | –
TAAATTGATATTGC A35G | -0.559 ± 0.067 | -0.531 ± 0.13 | – | –
TAAATTAATATTGC | -0.319 ± 0.15 | 1.63 ± 0.083 | – | –
TAAAGTGATATTGC | 0.000666 ± 0.021 | 0.119 ± 0.27 | – | –
TAAAAAGATATTGC | -0.0646 ± 0.032 | 1.04 ± 0.075 | – | –
CG T6A G7C | – | – | -6.27 ± 0.56 | –
CT A102C T104G T105G | – | – | -1.98 ± 0.87 | -1.62 ± 0.69
CG T116G G117T A118C A119C T120G C121A G122T A123C G124T T125G | – | – | -0.0959 ± 0.032 | -0.144 ± 0.39
CG T114A G115C | – | – | -0.342 ± 0.024 | -0.272 ± 0.35
CT A21C A22C A23C G24T A75C T76G A77C T78G A101C A102C T104G | – | – | -7.99 ± 1.6 | –
CG G7T T8G T9G G10T | – | – | -7.84 ± 0.54 | –
CG T38C A40G T42A A44T A47T T48A C49T G51C C52A A53G A54T C55T T56G | – | – | -5.99 ± 0.93 | –
CG T41A A44G A46G T48G A50G C52A A53T C55A T56C T57A A59T C60T | – | – | -4.27 ± 0.75 | –
CG T8G T9G | – | – | -6.84 ± 0.88 | –
CG G10C A11T T12A G13C | – | – | -0.736 ± 0.86 | –
CG T116C | – | – | -0.0857 ± 0.085 | 0.235 ± 0.36
CG T116G | – | – | 0.0899 ± 0.05 | 0.159 ± 0.61
CG T116A | – | – | 0.0633 ± 0.024 | 0.317 ± 0.21
CG A19C A73C A99C | – | – | -6.27 ± 1.8 | –

Variant | relative integration efficiency (log2) [1] | relative integration efficiency (log2) [2] | relative integration efficiency (log2) [3] | relative integration efficiency (log2) [4]
CT A22C A23C G24T T25G T76G A77C T78G T79G A102C T104G T105G | – | – | -8.29 ± 1.2 | < -10
CG T114G T120A | – | – | -0.2 ± 0.041 | 0.16 ± 0.11
CT A22C A23C T76G A77C A102C | – | – | -3.81 ± 0.97 | -3.01 ± 0.15
CG T114G G115T T116G G117T A118C A119C T120G C121A G122T A123C G124T T125G | – | – | 0.295 ± 0.074 | 0.318 ± 0.049
CT A22C A23C G24T T76G A77C T78G A102C T104G | – | – | -3.88 ± 1.4 | -4.26 ± 1.6
CT A101C A102C T104G | – | – | -1.96 ± 0.64 | -2.08 ± 1.2
CG T116A G117C A118T A119T | – | – | 0.0211 ± 0.042 | 0.00543 ± 0.19
CT T104G T105G G106T | – | – | -1.06 ± 0.9 | -1.03 ± 0.46
CG T6G | – | – | -7.013 ± 0.063 | –
CG T116G G117T | – | – | -0.273 ± 0.045 | -0.146 ± 0.0071
CG A22C T76G A102C | – | – | -3.7 ± 1.5 | –
CG T114G | – | – | -0.0633 ± 0.064 | -0.0542 ± 0.0021
CG T114A | – | – | -0.291 ± 0.097 | -0.000535 ± 0.15
CG T114C | – | – | -0.448 ± 0.095 | -0.293 ± 0.5
CT | – | – | -0.0852 ± 0.034 | 0.219 ± 0.67
CG T6A G7C T8A T9A | – | – | -6.58 ± 0.36 | –
CG T120G C121A G122T A123C G124T T125G | – | – | 0.166 ± 0.011 | 0.433 ± 0.18
CG T120C | – | – | -0.131 ± 0.053 | -0.00648 ± 0.1
CG T120A | – | – | -0.141 ± 0.026 | 0.11 ± 0.41
CG T120G | – | – | -0.231 ± 0.1 | -0.103 ± 0.1
CG T5A T6A G7C T8A | – | – | -7.12 ± 1.1 | –
CG A44G T45C A47T T48A C49A G51A C52A A53T A54T T56A A58C | – | – | -6.6 ± 1.8 | –
CG T125G | – | – | -0.0179 ± 0.099 | 0.265 ± 0.28
CG T20G T74G T100G | – | – | -6.64 ± 1.3 | –

Variant | relative integration efficiency (log2) [1] | relative integration efficiency (log2) [2] | relative integration efficiency (log2) [3] | relative integration efficiency (log2) [4]
CG T42A A44T C49A G51T C52T C55T A59T C60A C61T C63T A64T A65T | – | – | -2.87 ± 0.52 | –
CG T3A G4C T5A T6A | – | – | -6.84 ± 0.4 | –
CG G7C T8A | – | – | -6.52 ± 0.12 | –
CG G4C T5A T6A G7C | – | – | -7.62 ± 0.39 | –
CG T82A | – | – | -0.103 ± 0.77 | –
CG T116G G117T A118C A119C | – | – | 0.0794 ± 0.11 | -0.21 ± 0.42
CG A19C T20G A21C A22C | – | – | -3.48 ± 1.4 | –
CG T6G G7T | – | – | -9.04 ± 0.91 | –
CG C55A T56G T57G A58C | – | – | -2.14 ± 0.62 | –
CG T45C A46T A47T C49T A50G C52T A53T T56A A59T C60T | – | – | -6.51 ± 2 | –
CG T114G G115T T116G G117T | – | – | -0.309 ± 0.015 | -0.295 ± 0.33
CG T114G G115T | – | – | -0.471 ± 0.32 | 0.781 ± 0.54
CG T48A C49T A50T C52T A53G C55G T56C T57G A58G C60T C61A A66T A67T | – | – | -4.31 ± 0.86 | –
CT A102C | – | – | -0.973 ± 0.41 | -1.29 ± 0.9
CG T8G T9G G10T A11C | – | – | -7.43 ± 0.35 | –
CT T100G A101C A102C | – | – | -2.43 ± 0.88 | -1.43 ± 0.25
CG T116A G117C | – | – | 0.161 ± 0.0064 | 0.431 ± 0.71
CG C49G A50T C52A A53T C55A T56C T57A A59T C61A A62C C63A A64G | – | – | -3.37 ± 1.4 | –
CG T114A G115C T116A G117C | – | – | -0.00788 ± 0.19 | -0.217 ± 0.74
CT A23C G24T A77C T78G T104G | – | – | -0.527 ± 0.28 | -0.239 ± 0.088
CT T104G | – | – | -0.45 ± 0.14 | -0.14 ± 0.17
CT A23C A77C | – | – | -0.234 ± 0.065 | -0.217 ± 1.2
